From patent EP4772613A1 (GI Cell, Inc., dated 2026)
Positions count from the first letter of the chain named. Numbers in names are those of the source.

T1: IL-2Rβ-his (Acro CD2-H5221) (UniProt P14784 27-239)
T1 construct: also called CD122; not shown: his tag
T1 sequence (looked up): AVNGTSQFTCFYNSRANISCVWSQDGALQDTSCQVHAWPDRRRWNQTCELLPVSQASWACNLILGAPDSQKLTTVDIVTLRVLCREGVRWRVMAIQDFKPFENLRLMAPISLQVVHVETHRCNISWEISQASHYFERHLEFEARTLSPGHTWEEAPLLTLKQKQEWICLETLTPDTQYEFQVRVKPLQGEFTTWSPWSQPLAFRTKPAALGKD

T2: IL-2Rβ and common γ chain on HEK-Blue CD122/132 cells (InvivoGen hkb-il2bg) (UniProt P14784 27-551; P31785 23-369, limits assumed)
T2 sequence (looked up) 1: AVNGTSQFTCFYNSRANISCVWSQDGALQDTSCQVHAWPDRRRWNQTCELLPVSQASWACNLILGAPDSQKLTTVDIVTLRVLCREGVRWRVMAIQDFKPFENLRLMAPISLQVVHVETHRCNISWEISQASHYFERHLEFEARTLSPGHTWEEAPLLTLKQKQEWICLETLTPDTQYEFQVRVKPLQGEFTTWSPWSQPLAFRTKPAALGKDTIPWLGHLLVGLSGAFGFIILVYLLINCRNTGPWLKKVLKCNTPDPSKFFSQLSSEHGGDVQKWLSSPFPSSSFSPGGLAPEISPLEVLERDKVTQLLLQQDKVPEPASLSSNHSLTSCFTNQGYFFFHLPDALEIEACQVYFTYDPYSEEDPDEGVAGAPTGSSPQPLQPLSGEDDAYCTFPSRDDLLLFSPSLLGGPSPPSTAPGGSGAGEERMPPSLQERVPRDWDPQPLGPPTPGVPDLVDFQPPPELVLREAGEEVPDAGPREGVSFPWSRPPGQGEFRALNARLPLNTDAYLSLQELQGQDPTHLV
T2 sequence (looked up) 2: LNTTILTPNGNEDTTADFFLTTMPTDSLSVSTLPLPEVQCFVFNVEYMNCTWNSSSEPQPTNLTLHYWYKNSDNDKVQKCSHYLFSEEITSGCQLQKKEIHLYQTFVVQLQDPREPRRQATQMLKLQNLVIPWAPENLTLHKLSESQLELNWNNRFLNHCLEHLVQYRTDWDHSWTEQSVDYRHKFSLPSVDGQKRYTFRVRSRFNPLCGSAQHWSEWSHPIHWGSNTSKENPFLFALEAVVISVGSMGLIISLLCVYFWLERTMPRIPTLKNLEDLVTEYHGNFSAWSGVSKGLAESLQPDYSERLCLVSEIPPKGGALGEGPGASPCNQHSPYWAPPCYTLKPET

B1: GIC-982C1 (IL-2/IL-15) (Fc fusion)
chain: GSAESKYGPPCPPCPAPEAAGGPSVFLFPPKPKDQLMISRTPEVTCVVVDVSQEDPEVQFNWYVDGVEVHNAKTKPREEQFNSTYRVVSVLTVLHQDWLNGKEYKCKVSNKGLPSSIEKTISKAKGQPREPQVYTLPPSQEEMTKNQVSLTCLVKGFYPSDIAVEWESNGQPENNYKTTPPVLDSDGSFFLYSRLTVDKSRWQEGNVFSCSVLHEALHNHYTQKSLSLSLGGGGGSGGGGSITCPPPMSVEHADIWVKSYSLYSRERYICNSGFKRKAGTSSLTECVLNKATNVAHWTTPSLKCIRGGGGSGGGGSGGGGSGGGGSAPTSSSTKKTQLQLEHLLLDLQMILNGSMHIDATLYTESDVHPSCKVTAMKCFLLELQVISLESKNFHLRPRDLISNINVIVLELKGSNGNVTESGCKECEELEEKNIVEFLNRWITFCQSIISTLT
B2: GIC-982C15 (IL-2/IL-15v8) (S76K) (Fc fusion)
chain: B1 chain with S402K
B3: GIC-982C6 (IL-2/IL-15v5) (V80L) (Fc fusion)
chain: B1 chain with V406L
notes: the entry already holds the change
B4: GIC-982C5 (IL-2/IL-15v4) (N77D) (Fc fusion)
chain: B1 chain with N403D
notes: as for B3
B5: GIC-982C12 (IL-2/IL-15v11) (D73E, L74F, S76D, N77D, V80L) (Fc fusion)
chain: B1 chain with D399E, L400F, S402D, N403D, V406L
notes: the entry already holds the changes
B6: GIC-982C14 (IL-2/IL-15v7) (S76N) (Fc fusion)
chain: B1 chain with S402N
B7: GIC-982C3 (IL-2/IL-15v2) (L74F) (Fc fusion)
chain: B1 chain with L400F
notes: as for B3
B8: GIC-982C2 (IL-2/IL-15v1) (D73E) (Fc fusion)
chain: B1 chain with D399E
notes: as for B3
B9: GIC-982C4 (IL-2/IL-15v3) (S76D) (Fc fusion)
chain: B1 chain with S402D
notes: as for B3
B10: GIC-982C13 (IL-2/IL-15v6) (S76E) (Fc fusion)
chain: B1 chain with S402E

Molecular target: T1, IL-2Rβ-his (Acro CD2-H5221)
Test: Octet BLI; IL-2Rβ-his on Ni-NTA sensor, analyte 2,000 to 31.25 nM

Kd [nM] | koff [s⁻¹] | kon [M⁻¹ s⁻¹] | Binder
387 | 0.000335 | 866 | B1
178 | 0.000476 | 2670 | B2
386 | 0.000435 | 1130 | B3
1290 | 0.000313 | 242 | B4
265 | 9.11e-05 | 344 | B5
327 | 0.000223 | 686 | B6
302 | 0.000481 | 1590 | B7
215 | 0.000148 | 686 | B8
144 | 0.000338 | 2350 | B9
105 | 0.000204 | 1930 | B10

Molecular target: T2, IL-2Rβ and common γ chain on HEK-Blue …
Test: cell-based or functional assay

EC50 (ng/ml), STAT5 activity, HEK-Blue CD122/132 reporter cells [ng/mL] | Binder
1730 | B1
134 | B2
723 | B3
997 | B6
9740 | B7
1080 | B8
255 | B9
1390 | B10
